In patent US20230051715A1 (MABWELL THERAPEUTICS, published 2023):
Positions count from the first letter of the chain named. Names and notes keep the numbering of the source. One block for each binder: values may come before it.

Columns and labels:
[1] = molecular target: T1, human C1s mutant M6 (P280A, E282K & K336G) (human, UniProt P09871 16-688); assay: ELISA, plate coated with human C1s mutant M6: P280A, E282K, K336G, OD450nm
T1 construct: The entry is the mutant itself
T1 sequence: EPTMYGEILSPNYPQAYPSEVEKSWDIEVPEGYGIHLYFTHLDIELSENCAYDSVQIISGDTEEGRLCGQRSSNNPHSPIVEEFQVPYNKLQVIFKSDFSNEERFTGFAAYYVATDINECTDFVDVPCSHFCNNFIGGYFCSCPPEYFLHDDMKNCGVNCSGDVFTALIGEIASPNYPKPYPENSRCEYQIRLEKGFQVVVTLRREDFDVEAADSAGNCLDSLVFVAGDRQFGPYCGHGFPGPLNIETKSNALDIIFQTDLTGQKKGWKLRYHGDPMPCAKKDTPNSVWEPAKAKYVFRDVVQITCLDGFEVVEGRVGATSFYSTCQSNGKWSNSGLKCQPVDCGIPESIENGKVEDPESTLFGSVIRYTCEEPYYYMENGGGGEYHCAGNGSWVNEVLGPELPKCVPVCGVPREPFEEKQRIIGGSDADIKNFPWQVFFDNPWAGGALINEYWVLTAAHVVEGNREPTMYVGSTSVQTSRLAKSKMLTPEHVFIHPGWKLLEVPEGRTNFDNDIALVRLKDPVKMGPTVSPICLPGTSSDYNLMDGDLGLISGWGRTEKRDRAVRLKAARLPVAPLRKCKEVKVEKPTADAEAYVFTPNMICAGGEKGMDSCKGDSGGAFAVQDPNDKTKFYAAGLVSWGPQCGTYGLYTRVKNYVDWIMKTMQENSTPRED
Description: ELISA was carried out by first coating 96-well plates with 200 ng/well of full-length or truncated C1s proteins overnight. The next morning, plates were blocked with SuperBlock T20 blocking buffer (Thermo Scientific 37536) for 1 h with gentle shaking. Then, various concentrations of anti-C1s antibodies diluted in SuperBlock T20 blocking buffer were added to the plates and incubated for 1 h with gentle shaking. Mouse IgG (Sigma-Aldrich 15381) and human IgG1 (BioXCell BP0297) were used as negative controls. The plates were washed before incubating with HRP conjugated secondary antibodies diluted in SuperBlock T20 blocking buffer (goat anti-mouse IgG (H+L) cross-adsorbed secondary antibody HRP (Invitrogen G-21040) or goat anti-human IgG antibody, HRP conjugate (Millipore AP309P)) for 1 h with gentle shaking. At last, the plates were washed and color developed with ELISA liquid HRP substrate (Sigma-Aldrich), followed by stopping the reaction with addition of 1M H₂SO₄ in the same volume as the ELISA liquid substrate. Bound antibody was measured by absorbance at OD₄₅₀ₙₘ.
Binding of anti-C1s antibodies to mutants M1-M20 of human C1s was measured by ELISA as described in Example 4, and results are shown in FIGS. 6B-6U. […]

[2] = molecular target: T2, active human C1s (CompTech A104 C1s Enzyme) (human, UniProt P09871 16-688); assay: BLI (Octet RED96e), antibody on AHC biosensor; HuC1s Form: Active; R^2 0.9998
T2 construct: also called human active C1s; active C1s protein
T2 sequence (looked up): T1 sequence with A280P, K282E, G336K
Description: Bio-Layer Interferometry technology was used for anti-C1s antibody affinity measurement and binding kinetics determinations with OCTET® RED96e system (Sartorius AG). Pre-hydrated Anti-Human IgG Fc Capture (AHC) biosensors were first equilibrated in 1×KB (Kinetic Buffer, 1×PBS pH 7.4+0.02% Tween-20+0.1% BSA) for 120 sec for the first baseline, followed by loading with […] anti-C1s antibody (2-7, FIG. 3A; 2-8, FIG. 3B; hz2-7(H1L2), FIG. 3C; hz2-8(H1L2 G80A/T82A, FIG. 3D) onto AHC biosensors for 240 sec. Then, the second baseline signal was established for 120 sec before association with various concentrations of active human C1s (CompTech A104) for 240-360 sec. At last, analyte was dissociated in 1×KB for 360 sec. Anti-C1s antibodies 2-7 and 2-8 were also analyzed against human C1s proenzyme (CompTech A103) (data not shown). Data analysis was carried out using OCTET® Data Analysis HT Software (Sartorius AG). KD, kₒₙ, koff and R² values were calculated for each antibody and target combination, as summarized in FIG. 3E showing high affinity binding with KD values in the low nanomolar to picomolar range.

EC50 [1]: 0.013 µg/mL
Kd [2]: 0.24 nM
koff [2]: 7e-05 s⁻¹
kon [2]: 290000 M⁻¹ s⁻¹
B1: Anti-C1s antibody hz2-7(H1L2) (antibody, V domains shown)
VH: EVQLLESGGGLVQPGGSLRLSCAASGFTFSNYFMNWVRQAPGKGLEWVSEIRLKFTNYATHYADSVKGRFTISRDDSKSTLYLQMNSLRAEDTAVYYCTRDYGSRNGYFDYWGQGTLVTVSS
VL: DIVMTQTPLSLPVTPGEPASISCRSSKSLLHSNGNTFLYWFLQKPGQSPQLLIYRMSNLASGVPDRFSGSGSGTDFTLKISRVEAEDVGVYYCMQHLEYPYTFGGGTKLEIKR
notes: Humanized, human IgG1 / kappa; also called hz2-7(1L2)

EC50 [1]: 0.06 µg/mL
Kd [2]: 1.2 nM
koff [2]: 0.00029 s⁻¹
kon [2]: 240000 M⁻¹ s⁻¹
B2: Anti-C1s antibody hz2-8 (H1L2 G80A/T82A) (antibody, V domains shown)
VH: QVQLVQSGAEVKKPGASVKVSCKASGFNIKEYYMHWVRQAPEQGLEWMGWIDPENADAIYAQKFQGRVTITADTSTNTAYMELSSLRSEDTAVYYCARSRLFFAYWGQGTLVTVSS
VL: DIQMTQSPKSLSASVGDRVTITCRASQDVRTALDWYQQKPGQSPKLLIYSASYRYSGVPSRFSGSGSGTDFTLTISSLQPEDFATYYCQQQYTTPYTFGQGTKLEIKR
notes: Humanized variant with G80A and T82A in HC CDR2 (already in the entry), human IgG1 / kappa
